Target: the molecule itself
Assay: cross-linking

B1: recombinant PKM2-C423/424A (enzyme)
chain: not shown
- stoichiometry N: 4

From paper PMC6318002 (Nature, 2018)
